Laboratory results published in PMC4800717, “Hxt13, Hxt15, Hxt16 and Hxt17 from Saccharomyces cerevisiae represent a novel type of polyol transporters” (Scientific Reports, 2016).
Substitutions are numbered along the chain they refer to. Names and notes keep the numbering of the source.

Assays:
[1] = substrate: OC[C@@H](O)[C@@H](O)[C@H](O)[C@@H](O)CO; experiment: NAD+ reduction, crude extract of overexpressing yeast; format: biochemical, Saccharomyces cerevisiae; details: 1.66 mM NAD+, 60 mM HEPES-NaOH pH 7.4
Text: (§1) NAD+ reduction, crude extract of overexpressing yeast on Sor1

[2] = substrate: OC[C@@H](O)[C@@H](O)[C@H](O)[C@H](O)CO; experiment: as above; format: biochemical, Saccharomyces cerevisiae; details: 1.66 mM NAD+, 60 mM HEPES-NaOH pH 7.4
Text: as §1

[3] = substrate: OC[C@@H](O)[C@@H](O)[C@H](O)[C@@H](O)CO; experiment: as above; format: biochemical, Saccharomyces cerevisiae; details: 1.66 mM NAD+, 60 mM HEPES-NaOH pH 7.4; remark: listed apart in the source
Text: (§2) NAD+ reduction, crude extract of overexpressing yeast on Sor2

[4] = substrate: OC[C@@H](O)[C@@H](O)[C@H](O)[C@H](O)CO; experiment: as above; format: biochemical, Saccharomyces cerevisiae; details: 1.66 mM NAD+, 60 mM HEPES-NaOH pH 7.4; remark: listed apart in the source
Text: as §2

[5] = substrate: OC[C@@H](O)[C@@H](O)[C@H](O)[C@H](O)CO; experiment: cells, lysate or membranes; format: cell-based, Saccharomyces cerevisiae; details: labelled compound, EBY.VW4000 co-expressing YNR073C, 30 °C
[6] = substrate: OC[C@@H](O)[C@@H](O)[C@H](O)[C@@H](O)CO; experiment: cells, lysate or membranes; format: cell-based, Saccharomyces cerevisiae; details: labelled compound, EBY.VW4000 co-expressing SOR1, 30 °C, facilitated transport
[7] = substrate: OC[C@@H](O)[C@@H](O)[C@H](O)[C@H](O)CO; experiment: NAD+ reduction, crude extract of overexpressing yeast; format: biochemical, Saccharomyces cerevisiae; details: 1.66 mM NAD+, 60 mM HEPES-NaOH pH 7.4; remark: listed apart in the source
Text: NAD+ reduction, crude extract of overexpressing yeast on YNR073C

[8] = substrate: OC[C@@H](O)[C@@H](O)[C@H](O)[C@H](O)CO; experiment: as above; format: biochemical, Saccharomyces cerevisiae; details: 1.66 mM NAD+, 60 mM HEPES-NaOH pH 7.4; remark: listed apart in the source
Text: NAD+ reduction, crude extract of overexpressing yeast on Dsf1

B1: Sor1 (Saccharomyces cerevisiae S288C) (protein)
chain: MSQNSNPAVVLEKVGDIAIEQRPIPTIKDPHYVKLAIKATGICGSDIHYYRSGGIGKYILKAPMVLGHESSGQVVEVGDAVTRVKVGDRVAIEPGVPSRYSDETKEGRYNLCPHMAFAATPPIDGTLVKYYLSPEDFLVKLPEGVSYEEGACVEPLSVGVHSNKLAGVRFGTKVVVFGAGPVGLLTGAVARAFGATDVIFVDVFDNKLQRAKDFGATNTFNSSQFSTDKAQDLADGVQKLLGGNHADVVFECSGADVCIDAAVKTTKVGGTMVQVGMGKNYTNFPIAEVSGKEMKLIGCFRYSFGDYRDAVNLVATGKVNVKPLITHKFKFEDAAKAYDYNIAHGGEVVKTIIFGPE
notes: full-length ORF, p425H7 multicopy plasmid, overexpressed in yeast CEN.PK2-1C; crude extract
For B1, the Km [1] was 11.8 ± 1.4 mM, the Vmax [1] was 0.40 ± 0.01 umol substrate converted per minute per and the Km [2] was 89.0 ± 37.5 mM. For the same protein, the Vmax [2] was 0.10 ± 0.02 umol substrate converted per minute per.

B2: Sor2 (Saccharomyces cerevisiae S288C) (protein)
chain: B1 chain with R108S
notes: as for B1
For B2, the Km [3] was 15.1 ± 2.8 mM, the Vmax [3] was 0.5 ± 0.02 umol substrate converted per minute per and the Km [4] was 98.4 ± 25.7 mM. The Vmax [4] was 0.05 ± 0.01 umol substrate converted per minute per.

B3: Hxt17 (Saccharomyces cerevisiae S288C) (protein)
chain: MQSSTESDRDIQDGPDADIHVAPPVEKEWSDGFDDNEVINGDNVEPPKRGLIGYLVIYLLCYPISFGGFLPGWDSGITAGFINMDNFKMNFGSYKHSTGEYYLSNVRMGLLVAMFSIGCAIGGLIFARLADTLGRRLAIVIVVLVYMVGAIIQISSNHKWYQYFVGKIIYGLGAGGCSVLCPMLLSEIAPTDLRGGLVSLYQLNMTFGIFLGYCSVYGTRKYDNTAQWRVPLGLCFLWTLIIIIGMLLVPESPRYLIECERHEEARASIAKINKVSPEDPWVLKQADEINAGVLAQRELGEASWKELFSVKTKVLQRLITGILVQTFLQLTGENYFFFYGTTIFKSVGLTDGFETSIVLGTVNFFSTIIAVMVVDKIGRRKCLLFGAAGMMACMVIFASIGVKCLYPHGQDGPSSKGAGNAMIVFTCFYIFCFATTWAPVAYIVVAESFPSKVKSRAMSISTACNWLWQFLIGFFTPFITGSIHFYYGYVFVGCLVAMFLYVFFFLPETIGLSLEEIQLLYEEGIKPWKSASWVPPSRRGIPSEESKTEKKDWKKFLKFSKGSD
notes: full-length ORF, p426H7 plasmid, expressed in hxt0 yeast EBY.VW4000 with YNR073C or SOR1
B3 showed a Km [5] of 18.6 ± 4.3 mM.

B4: Hxt13 (Saccharomyces cerevisiae S288C) (protein)
chain: MSSAQSSIDSDGDVRDADIHVAPPVEKEWSDGFDDNEVINGDNVEPPKRGLIGYLVIYLLCYPISFGGFLPGWDSGITAGFINMDNFKMNFGSYKHSTGEYYLSNVRMGLLVAMFSIGCAIGGLIFARLADTLGRRLAIVIVVLVYMVGAIIQISSNHKWYQYFVGKIIYGLGAGGCSVLCPMLLSEIAPTDLRGGLVSLYQLNMTFGIFLGYCSVYGTRKYDNTAQWRVPLGLCFLWALIIIIGMLLVPESPRYLIECERHEEARASIAKINKVSPEDPWVLKQADEINAGVLAQRELGEASWKELFSVKTKVLQRLITGILVQTFLQLTGENYFFFYGTTIFKSVGLTDGFETSIVLGTVNFFSTIIAVMVVDKIGRRKCLLFGAAGMMACMVIFASIGVKCLYPHGQDGPSSKGAGNAMIVFTCFYIFCFATTWAPVAYIVVAESFPSKVKSRAMSISTACNWLWQFLIGFFTPFITGSIHFYYGYVFVGCLVAMFLYVFFFLPETIGLSLEEIQLLYEEGIKPWKSASWVPPSRRGISSEESKTEKKDWKKFLKFSKNSD
notes: as for B3
B4 was tested, and the Km [6] was 20.4 ± 2.4 mM and the Km ([5]; facilitated transport) was 16.7 ± 2.9 mM.

B5: YNR073C (Saccharomyces cerevisiae S288C) (protein)
chain: MTKSDETTATSLNAKTLKSFESTLPIPTYPREGVKQGIVHLGVGAFHRSHLAVFMHRLMQEHHLKDWSICGVGLMKADALMRDAMKAQDCLYTLVERGIKDTNAYIVGSITAYMYAPDDPRAVIEKMANPDTHIVSLTVTENGYYHSEATNSLMTDAPEIINDLNHPEKPDTLYGYLYEALLLRYKRGLTPFTIMSCDNMPQNGVTVKTMLVAFAKLKKDEKFAAWIEDKVTSPNSMVDRVTPRCTDKERKYVADTWGIKDQCPVVAEPFIQWVLEDNFSDGRPPWELVGVQVVKDVDSYELMKLRLLNGGHSAMGYLGYLAGYTYIHEVVNDPTINKYIRVLMREEVIPLLPKVPGVDFEEYTASVLERFSNPAIQDTVARICLMGSGKMPKYVLPSIYEQLRKPDGKYKLLAVCVAGWFRYLTGVDMNGKPFEIEDPMAPTLKAAAVKGGKDPHELLNIEVLFSPEIRDNKEFVAQLTHSLETVYDKGPIAAIKEILDQV
notes: as for B1
B5 was tested, and the Km [7] was 3.6 ± 0.5 mM and the Vmax [7] was 0.40 ± 0.02 umol substrate converted per minute per.

B6: Dsf1 (Saccharomyces cerevisiae S288C) (protein)
chain: B5 chain
notes: as for B1
In the case of B6, the Km [8] is reported as 2.9 ± 0.3 mM and the Vmax [8] is reported as 0.90 ± 0.02 umol substrate converted per minute per.

B7: Hxt15 (Saccharomyces cerevisiae S288C) (protein)
chain: MASEQSSPEINADNLNSSAADVHVQPPGEKEWSDGFYDKEVINGNTPDAPKRGFLGYLIIYLLCYPVSFGGFLPGWDSGITAGFINMDNFKMNFGSYKHSTGEYYLSNVRMGLLVAMFSVGCSIGGVAFARLADTLGRRLAIVIVVLVYMVGAIIQISSNHKWYQYFVGKIIYGLGAGGCSVLCPMLLSEIAPTDLRGGLVSLYQLNMTFGIFLGYCSVYGTRKYSNTAQWRIPVGLCFLWALIIIVGMLLVPESPRYLIECERHEEACVSIAKINKVSPEDPWVLKQADEINAGVLAQRELGEASWKELFSVKTKVLQRLITGILVQTFLQLTGENYFFFYGTTIFKSVGLTDGFETSIVLGTVNFFSTIIAVMVVDKIGRRKCLLFGAASMMACMVIFASIGVKCLYPHGQDGPSSKGAGNAMIVFTCFYIFCFATTWAPVAYIVVAESFPSKVKSKAMSISTAFNWLWQFLIGFFTPFITGSIHFYYGYVFVGCLVAMFLYVFFFLPETIGLSLEEIQLLYEEGIKPWKSASWVPPSRRGASSRETEAKKKSWKEVLKFPKSFN
notes: full-length ORF, p426H7 plasmid, expressed in hxt0 yeast EBY.VW4000 or AFY10 with a polyol dehydrogenase
B7 showed a Km [6] of 38.9 ± 8.6 mM and a Km ([5]; facilitated transport) of 11.4 ± 2.7 mM.
